Assay: soluble on expression in E. coli; label from the status in PepcDB or PDB records

Soluble on expression in E. coli, not soluble:
MSLRIDHSGSCVWLKMQKPRFSFAVLLPSETMRRQFTRNTSNMKTELTLLEQTLTLHRFPKRNNETLQAWDAGDEYLIQHVEQLALPESSHIVIINDHFGTLSCWFSQKHKVSMMSDSYIAHQATQANLQQNQRPPVQLLTTLDPVPNDASVVLLQLPKSNRHLVWILSQLRKALSPNIPIIAVNKAKEIHTSTLNLFEKHLGPTTTSLAWKKHRLVFSSATVNPANEVNPECGWSIEPYAITLTNLPNVYSGESLDLGSRFILEHLPADPTLEDFIDLGCGNGVLSVRLGQLNPQAKITCVDESFMAIASAQKNLHDNLGKRDIHCIANNCLDGFPAHSSSMIVCNPPFHQQQTITDHIAWQMFCDSKHVLKKGGKLWVIGNRHLGYDVKLARLFGKSHVRVIANNSKFVILQAIKSEGHHHHHH
MSLRLSLLSSTSKYKVTVAEVQRRLSPPECLNASLLGGVLRRAKSKNGGRSLREKLDKIGLNLPAGRRKAAHVTLLTSLVEGEAVHLARDFAYVCEAEFPSKPVAEYLTRPHLGGRNEMAARKNMLLAAQQLCKEFTELLSQDRTPHGTSRLAPVLETNIQNCLSHFSLITHGFGSQAICAAVSALQNYIKEALIVIDKSYMNPGDQSPADSNKTLEKMEKHREGHHHHHH
MSLRVKTMVFTPFISMVGVTGSMGPFFCEFTLNGDLLPINYPATYTHELAHLLGISSEAEANFYAYQVCTRSQIKGIRFSGYFSILNHVLGNARRLLSEKEYADIINRIRPEIIELAKKNQEYWMAKYSPLIGDVQNWIYDLYLKGNKIESGRKNYSEVIGLLISYQVWKAKTASDEGHHHHHH
MSLRYPMSKLAYHRVLLKLSGEALMGSADYGIDPKVINRLAGEVIEAQNAGAELALVIGGGNIFRGAGLAAKGMDRVTGDHMGMLATIINALAMQDALEKLGTKVRVMSAIKINNVCEDFIRRRAIRHLEKSRITIFAAGTGNPFFTTDSGAALRAIEIGADLLLKATKVDGIYNKDPQKHCDAVKYSTLSYDEVISQNLEVMDTAAFALARDSNLPLRIFDIEQPGVLLRILHGEEIGTLVKERNSKSEGHHHHHH
MSLSADFSQPLADRLRPRTLDEYIGQLHLIEPGRPLYESIRRGRLHSMIFWGPPGTGKTTLARLVARHADAEFLPVSAVLSGVKEIREALARAVQFKAAGRRAILFVDEVHRFNKSQQDAFLAHVEDGTVSFIGATTENPSFEVNSALLSRARVYVLKALTEADLLGVIDRALSDAERGLGGRGLNMSDPVRMAYVRAADGDARRLLNLLEITADLLDAGQTVVSEEVARQVLASGTTRRFDKQGEEFYNQISALHKSVRGSSPDAALYWLCRMLDGGCDPLYLARRLVRIASEDIGNADPKALELCLNAWNAQERLGSPEGELALAQAVVYLAVAPKSNAVYEAYKAARADAARSGSLPVPLHLRNAPTGLMKGLDYGKGYRYAHDYPDAYVPGENYFPEGLERREYYRPVNRGMEIKIAEKLERLKALDKEADEGHHHHHH

Soluble on expression in E. coli, soluble:
MSLREINMLRNISSCLFPHISTITSPNHYLSEWDDWEKQGLPEEQRTEAVRRLRACLTSKGHKLDLRALALSSLPVLPACIKKLDVSCNKLTILTDLPENIKELIARDNFLTHISALPHYLITLDVSENQLENLPLLPDTIKSLSAEYNRLSTLPSLPLNLKKLEVRNNELQTLPSLPSNLKILKVAHNHLTELPPLPRRLQLLFAYSNRLSNLPNIQENIIMRRFFYFENNQITTIPTNLFRLDPHITIEIANNPLSDQTLLFLIQQTSVPNFNGPQFRISLSDEGHHHHHH
MSLRIEYNYRYYLTENEYKQYHIQLKGFIKKYVATKLADVGEVIHFAQAQQRQGRYVSLYLSYEAAKYFNHVMCTHSLAKDDIYAVAYSFEKAESINSTYEHQTSYVSKHHFSFVESSEVMMTNIKRVQQAIVEGETYQVNYTARLTDNIYYPISTLYERLTQFSNGNYTALLQTDEIQVASISPELFFQKGQFNNVDNVIISKPMKGTMPRGKTEAEDQQYYKTLQTSSKDRAENVMIVDLLRNDIGRISQSGSIKVYKLFFIEAYKTVFQMTSMVSGTLKTNTDLTQILTSLFPCGSITGAPKLNTMKYIKQFESSPRGIYCGAIGLLLPTEDDKMIFNIPIRTIEYKYGQAIYGVGAGITIDSKPKDEVNEFYAKTKILEMLEGHHHHHH
MSLRITEGSAVIEVPEAYSGPGRRSPGFYNADQVLNRDLTIDLINEFGVEKVLDGFGGSGVRGIRISLETKAKVVIAEISPSSCEIIKQNIAINNAEADLIHDNFQCVSSHIAFDYIDVDPYGSPVPYLDAAIMNVRKGGYLGITATDQSTLTGSTLNKTRRRYGAYIVNDIYRHEMGIRTLIGYIARRAAAFDRYIEPQLSIWNHHYYRVFVKVGKGVNGADKMIENIGYLNKHTTIDNSFKDVNEGPVWLSNLNNAELLEKIRDPRVSKKIEMIKHDNRLLFVDLTDIARKTSLSLPPLAKVMDEIMKHGYEAHRTSFSPTGIKTDCPYAEVSEILKAYAKREGHHHHHH
MSLRITGPYQSFARYETALLGFLSHASGMATAALAARRAAPDSHLLSFGARHVHPSIAAVVERAALIGGFDGFSHVAAGDVLDREPGGTMPHALVICFGRGNQEAAWRAFTDGVGDDVPRIALCDTYSDEKDEVLRAVDELGDDLDAVRLDTTSSRRGDFRHIAREVQWALDAGGNSDVSVFVSGGLTPTDLRGLRDVVDGFGVGGFVSNATPVDFGLDIVEVAGEPAAKRGKLSGTKAVYRTPDGGHHVALASQPAPADATALLEPLLVDGTVSMAFDIDDAAARARQDARAVSFRQEGHHHHHH
MSLRLALFDLDNTLLGGDSDHAWGDYLCERGFLDAVAYKTRNDEFYQDYLAGKLDNAAYLNFCLEILGRTDMVVLEEWHRDFMRDCIEPILLPKAQALLDKHRAAGDKLVIITATNRFVTAPIAERLGVETLIATECEMQDGRYTGRSTDVPCFREGKVTRLNRWLEETGHSLEDSYFYSDSMNDLPLLEQVTTAVAVDPDPNLRAEAEKRGWQVISLRDEGHHHHHH
MSLRLDKFIAENVGLTRSQATKAIRQSAVKINGEIVKSGSVQISQEDEIYFEDELLTWIEEGQYFMLNKPQGCVCSNDDGDYPTIYQFFDYPLAGKLHSAGRLDVDTTGLVLLTDDGQWSHRITSPKHHCEKTYLVTLADPVEENYSAACAEGILLRGEKEPTKPAKLEILDDYNVNLTISEGRYHQVKRMFAALGNKVVGLHRWKIGDVVLDESLEEGEYRPLTQSEIEKLVEGGSHHHHHH
MSLRRIGITQRLLETREYIETREALDVRWGELFYHLSWGMIPLSYAVPLEVYIKEFALEGVILSGGNDLNDFVSSPLNKKRDAYEKEILRYAKQYAFPLLGVCRGAQMIAYEGGSLLEFCEGHVGRHEIFWEEGEGEIIGSEHQLAIKELGAGLIPLARSCEGLVEAFRGEEAPLFGMMWHPERQDKRSAGTLKMVELFSQALQKREGHHHHHH
MSLRSQQSGILGVIVADIRNPYFTALIRAVEEVAYRAGMRVTLCNTDEDPEREALYLELMQEERITGLIFAPTRVTVGRMHELALDYPTVLVDRAGPGSRYDSVVLDNGAAMAELVAHLQAQGYRRIGGLFGSTSTTAAERRDGYLAAMRAQGLQPDYREVAPTAEAAIAELGAWLANDQRPEAIVTSNSLLLMGALKAARTAGLRLPQDLALAGFDNERWTDLVEPGITVVEQPVEDMGRAAMSLLLERLSNRQLPIRRLVMTGRCVVRGSTAEGHHHHHH
MSLRVIDGGVTAPKGFKANGYKEGKFGVAIIISEKDAVGAGTFTTNKVVAHPVVLSRELIKNRDKFRAIVANSGNANCFTKDGMEDAKEMQRLVAELFNINEDEVLVASTGVIGRKMDMNIIKDRINKVYNLIKEGNSSINAAKAIMTTDTKPKEIAVEFEVNGKTVRVGGIAKGAGMIAPNMLHATMLCFITTDIEIDKESLTNILQKVVDKTFNNISVDGDTSTNDTVFVLANGLSGVNYEECGEEFENALLYVCRELAKMIVKDGEGATKFMEVVVKGAKTEEDAVKASKAIVNSLLVKTAVFGGDPNWGRIVAAVGYSGADFNPEVVDVILSNYKDEVYLVKDGIPLADEGTEELKKAEEIMKSDEIKIVVDLKMGEFENVCYGCDLSYEYVRINAEYTTEGHHHHHH

— the DeepSol protein solubility set
